Results reported in patent US20170247454A1 (Hoffmann-La Roche, published 2017).

Assays:
[1] = molecular target: T1, PD1 glycosylated at Asn58 (human PD1-ECD) (human, UniProt Q15116 25-170, N-glycosylated at Asn58 (position on SEQ ID NO: 70)); test: SPR (Biacore T200, 25 °C), antibody captured by anti-human IgG, PD1-ECD as analyte, 1:1 Langmuir fit; PD1 glycosylated at Asn58
T1 construct: also called glycosylated PD-1; glycosylated recombinant PD1
From the text: (§1) A surface plasmon resonance (SPR) based assay has been used to determine the kinetic parameters of the binding between […]. Therefore, an anti-human IgG was immobilized by amine coupling to the surface of a (Biacore) CM5 sensor chip. The samples were then captured and hu PD1-ECD was bound to them. The sensor chip surface was regenerated after each analysis cycle. The equilibrium constant and kinetic rate constants were finally gained by fitting the data to a 1:1 langmuir interaction model.
(§2) The samples were injected for 20 seconds with a concentration of 10 nM and bound to the second flow cell.
(§3) Finally the double referenced data was fitted to a 1:1 langmuir interaction model with the Biacore T200 Evaluation Software.

[2] = molecular target: T2, PD1 aglycosylated at Asn58 (human PD1-ECD) (human, UniProt Q15116 25-170, not glycosylated at Asn58 (position on SEQ ID NO: 70)); test: SPR (Biacore T200, 25 °C), antibody captured by anti-human IgG, PD1-ECD as analyte, 1:1 Langmuir fit; PD1 aglycosylated at Asn58
T2 construct: also called aglycosylated PD-1; non-glycosylated recombinant human PD1
From the text: as §1, §2, §3

[3] = molecular target: T1, PD1 glycosylated at Asn58 (human …); test: SPR (Biacore T200, 25 °C), antibody captured by anti-human IgG, PD1-ECD as analyte, 1:1 Langmuir fit
From the text: as §1, §2, §3

[4] = molecular target: T2, PD1 aglycosylated at Asn58 (human …); test: as above
From the text: as §1, §2, §3

T1 sequence (Q15116 25-170 limits assumed): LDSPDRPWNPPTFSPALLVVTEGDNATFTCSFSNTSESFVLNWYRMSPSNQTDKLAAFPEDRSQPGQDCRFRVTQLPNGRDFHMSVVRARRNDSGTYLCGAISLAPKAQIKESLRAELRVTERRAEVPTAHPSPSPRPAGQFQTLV
T2 sequence (Q15116 25-170 limits assumed): as above

- Kd [1]: 0.0961 nM
- Kd [2]: 80.2 nM
- koff [3]: 7.46e-05 s⁻¹
- kon [3]: 777000 M⁻¹ s⁻¹
- koff [4]: 0.027 s⁻¹
- kon [4]: 336000 M⁻¹ s⁻¹
B1: PD1-0103-0312 (antibody, V domains shown)
VH: EVQLLESGGGLVQPGGSLRLSCAASGFSFSSYTMSWVRQAPGKGLEWVATISGGGRDIYYPDSVKGRFTISRDNSKNTLYLQMNSLRAEDTAVYYCVLLTGRVYFALDSWGQGTLVTVSS
VL: DIVMTQSPDSLAVSLGERATINCKASESVDTSDNSFIHWYQQKPGQSPKLLIYRSSTLESGVPDRFSGSGSGTDFTLTISSLQAEDVAVYYCQQNYDVPWTFGQGTKVEIK
